# Laboratory results published in patent US20240052037A1 (published 2024).
# Changes are numbered by the printed parent chain.
# B1: anti-PD-L1/anti-CD47 heterodimeric antibody BH3016 (bispecific antibody)
# heavy 1: EVQLVQSGAEVKKPGSSVKVSCKASGFNIEDTYIHWVRQAPGQGLEWMGRIDPANANTKYDPKFQGRVTITADTSTNTAYMELSSLRSEDTAVYYCGRGLGAWFAYWGQGTLVTVSS
# light 1: DIQMTQSPSSLSASVGDRVTITCKASQDVHTAVAWIQQKPGKSPKLLIYSASNRYTGVPSRFSGSGSGTDFTFTISSLQPEDIATYYCQQHYITPLTFGQGTKLEIKRTVAAPSVFIFPPSDEQLKSGTASVVCLLNNFYPREAKVQWKVDNALQSGNSQESVTEQDSKDSTYSLSSTLTLSKADYEKHKVYACEVTHQGLSSPVTKSFNRGEC
# heavy 2: QVQLVQSGAEVKKPGSSVKVSCKASGFNIEDIYMHWVRQAPGQGLEWMGRIDPANDNTKYGPKLQGRVTITADESTSTAYMELSSLRSEDTAVYYCVRRIPTDIMDYWGQGTTVTVSSASTKGPSVFPLAPSSKSTSGGTAALGCLVKDYFPEPVTVSWNSGALTSGVHTFPAVLQSSGLYSLSSVVTVPSSSLGTQTYICNVNHKPSNTKVDKKVEPKSCDKTHTCPPCPAPELLGGPSVFLFPPKPKDTLMISRTPEVTCVVVDVSHEDPEVKFNWYVDGVEVHNAKTKPREEQYASTYRVVSVLTVLHQDWLNGKEYKCKVSNKALPAPIEKTISKAKGQPREPQVYTEPPSRDELTKNQVSLTCLVKGFYPSDIAVEWESNGQPENNYKTTPPVLDSDGSFFLLSVLTVDKSRWQQGNVFSCSVMHEALHNHYTQKSLSLSPGK
# light 2: DIQMTQSPSSLSASVGDRVTITCKASQNVRTSIAWYQQKPGKAPKTLIYLASNRHTGVPSRFSGSGSGTEFTLTISNLQPEDFATYYCLQHWNYPFTFGQGTKLEIKRTVAAPSVFIFPPSDEQLKSGTASVVCLLNNFYPREAKVQWKVDNALQSGNSQESVTEQDSKDSTYSLSSTLTLSKADYEKHKVYACEVTHQGLSSPVTKSFNRGEC
# B2: anti-PD-L1/anti-CD47 heterodimeric antibody BH3015 (bispecific antibody)
# heavy 1: B1 heavy 1
# light 1: B1 light 1
# heavy 2: B1 heavy 2 with E74T
# light 2: B1 light 2 with T46R
# B3: anti-PD-L1/anti-CD47 heterodimeric antibody BH3012h (bispecific antibody)
# heavy 1: B1 heavy 1
# light 1: B1 light 1
# heavy 2: B1 heavy 2 with E74T, S77N
# light 2: B1 light 2
# B4: anti-PD-L1/anti-CD47 heterodimeric antibody BH3014 (bispecific antibody)
# heavy 1: B1 heavy 1
# light 1: B1 light 1
# heavy 2: B1 heavy 2 with S77N, V97A
# light 2: B1 light 2 with T46R
# B5: CD47 monoclonal antibody (heavy and light chain variable region sequences of the humanized sequences z11 of the antibody CD47-18-5 and the constant region … (antibody, V domains shown)
# VH: QVQLVQSGAEVKKPGSSVKVSCKASGFNIEDIYMHWVRQAPGQGLEWMGRIDPANDNTKYGPKLQGRVTITADTSTNTAYMELSSLRSEDTAVYYCVRRIPTDIMDYWGQGTTVTVSS
# VL: DIQMTQSPSSLSASVGDRVTITCKASQNVRTSIAWYQQKPGKAPKTLIYLASNRHTGVPSRFSGSGSGTEFTLTISNLQPEDFATYYCLQHWNYPFTFGQGTKLEIK
# Target: human CD47 (ACROBiosystems, catalog number CD7-H5227) (human, UniProt Q08722 19-139)
# Assay: ELISA
# Chain of human CD47 (ACROBiosystems, catalog number CD7-H5227) (Q08722 19-139): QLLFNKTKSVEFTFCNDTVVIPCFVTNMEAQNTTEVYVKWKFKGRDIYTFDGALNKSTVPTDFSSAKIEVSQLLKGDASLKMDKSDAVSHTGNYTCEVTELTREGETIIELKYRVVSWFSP
row,Binder,EC50
1,B1,0.491 nM
2,B2,2.49 nM
3,B3,0.134 nM
4,B4,68.4 nM
5,B5,0.094 nM

# Target: recombinant human PD-L1 (Sino Biological Inc., catalog number 10084-H08H) (human, UniProt Q9NZQ7 19-239)
# Assay: ELISA
# Chain of recombinant human PD-L1 (Sino Biological Inc., catalog number 10084-H08H) (Q9NZQ7 19-239): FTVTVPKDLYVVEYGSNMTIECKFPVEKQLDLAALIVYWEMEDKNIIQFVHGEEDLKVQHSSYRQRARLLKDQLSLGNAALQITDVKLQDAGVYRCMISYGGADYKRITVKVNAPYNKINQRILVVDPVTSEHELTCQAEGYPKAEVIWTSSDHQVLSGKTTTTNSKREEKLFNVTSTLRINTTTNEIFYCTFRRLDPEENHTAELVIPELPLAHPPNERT
row,Binder,EC50
1,B1,0.251 nM
2,B2,0.262 nM
3,B3,0.261 nM
4,B4,0.234 nM

# Target: recombinant human CD47-Fc (ACROBiosystems, catalog number CD7-H52A5) (human, UniProt Q08722 19-139)
# Assay: competition ELISA; blocking CD47/SIRPα
# Chain of recombinant human CD47-Fc (ACROBiosystems, catalog number CD7-H52A5) (Q08722 19-139): as the sequence (Q08722 19-139) above
row,Binder,EC50
1,B1,6.12 nM
2,B2,12.8 nM
3,B3,4.73 nM
4,B4,802 nM
5,B5,2.26 nM

# Target: T1, human PD-L1-Fc (ACROBiosystems, catalog number PD1-H5258) (human, UniProt Q9NZQ7 19-238)
# Assay: competition ELISA; blocking PD-L1/CD80
# T1 sequence (Q9NZQ7 19-238): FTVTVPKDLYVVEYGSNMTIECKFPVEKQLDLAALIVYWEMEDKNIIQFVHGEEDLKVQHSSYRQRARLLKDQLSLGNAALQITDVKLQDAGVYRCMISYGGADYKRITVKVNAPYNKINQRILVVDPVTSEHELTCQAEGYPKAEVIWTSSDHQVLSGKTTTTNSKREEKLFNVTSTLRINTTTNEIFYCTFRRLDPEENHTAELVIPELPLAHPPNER
row,Binder,EC50
1,B1,1.29 nM
2,B2,1.97 nM
3,B3,1.78 nM
4,B4,1.5 nM

# Target: T1, human PD-L1-Fc (ACROBiosystems, catalog …)
# Assay: competition ELISA; blocking PD-L1/PD-1
row,Binder,EC50
1,B1,1.5 nM
2,B2,1.67 nM
3,B3,1.54 nM
4,B4,1.63 nM
